Data: PMC2841647 (PLoS ONE, 2010)

Columns and labels:
human TrkB receptor = target: T1, human TrkB receptor (Homo sapiens, UniProt Q16620); test: KIRA-ELISA (TrkB tyrosine phosphorylation) in TetOn-rhTrkB CHO cells; format: cell-based; conditions: TetOn-rhTrkB cells, with or without 4 nM BDNF
T1 construct: expressed in transfected cells
Description: The human recombinant TrkB receptor was fluorescently tagged at its C-terminus with the Enhanced cyan fluorescent protein (rhTrkB-ECFP) by cloning the full human TrkB sequence (kindly provided by G. M. Brodeur) into the pECFP-N1 expression vector (Clontech). For inducible expression, rhTrkB-ECFP was subcloned into the tetracycline-responsive (TetOn) vector pTRE2 (Clontech). Chinese Hamster Ovary cells stably expressing rhTrkB-ECFP (TetOn-rhTrkB cells), were produced by transfection of the pTRE2-rhTrkB-ECFP plasmid into CHO-K1 TetOn cells (Clontech) followed by clone selection in 0.25 mg/ml hygromycin B (Invitrogen) and 0.1 mg/ml geneticin (G418; Invitrogen). Resistant cells were selected based on both fluorescence intensity and KIRA-ELISA profile after an overnight incubation in presence of 1000 ng/ml doxycycline (Clontech). Cortical neurons were prepared and cultured from E16 mouse embryos as described previously. The nnr5 PC12-TrkA, nnr5 PC12-TrkB and nnr5 PC12-TrkC cells (kindly provided by M. V. Chao) are NGF non-responding mutant PC12 cells stably transfected with TrkA, TrkB and TrkC cDNA, respectively.
TrkB activity was quantified using the previously described KIRA-ELISA assay with slight modifications. Cortical neurons were seeded on polyornithin-coated flat-bottom 96-well culture plates (12×10^4 cells per well) and cultured eight days at 37°C in 5% CO2. TetOn-rhTrkB cells were seeded on flat-bottom 96-well culture plates (4×10^4 cells per well) and incubated overnight with 1000 ng/ml doxycycline (Figs. S1,S2) except when indicated. Fluorescence levels in TetOn-rhTrkB cells were verified before each assay. […] Assay was stopped by removing the medium on ice and membranes were solubilized using KIRA-ELISA solubilization buffer (NaCl 150 mM, Hepes 50 mM, Triton X-100 0.5%, thimerosal 0.01%, sodium orthovanadate 2 mM, supplemented with a cocktail of protease inhibitors) for 1 h at room temperature. Solubilized membranes were transferred for 2 h at room temperature onto ELISA microtiter plate (Nunc Maxisorp) pre-coated overnight at 4°C with appropriate antibodies [polyclonal anti-GFP (1∶5000, Clontech) for TetOn-rhTrkB, polyclonal anti-TrkB (1 µg/ml, Upstate) for cultured neurons and brain slices, for phosphorylation assays; monoclonal anti-GFP (1∶3000, Chemicon) for TetOn-rhTrkB, monoclonal anti-TrkB (1∶1000, BD Biosciences) for cultured neurons and brain slices, for total TrkB quantification]. […] Absorbance was read at 450 nm after addition of 3,3′,5′,5-tetramethyl-benzidine substrate (Sigma) and acidification with 1N hydrochloric acid.
Concentration-response and competition curves were obtained using an iterative least-squares method derived from that of Parker & Waud (1971). […] Concentration-response curves and Eadie-Hofstee plots were analyzed using two-way ANOVA. Significance over time in locomotor activity studies was given using two-way ANOVA followed by Bonferroni's post-hoc test. […] One-way ANOVA followed by post-hoc Dunnett's test was used to evaluate statistical significance compare to saline group in EPM and FST procedures. n represents the number of independent experiments.

TrkB in brain slices = target: T2, TrkB in brain slices (Mus musculus, UniProt P15209); test: KIRA-ELISA in brain slices incubated with peptide; format: cell-based; conditions: 1 µM directly added to the slice, BDNF 4 nM
T2 construct: KIRA-ELISA analysis of brain TrkB receptors from mice; from tissue; host or cells: adult Swiss mouse brain, 300-µm coronal slices
Description: TrkB activity was quantified using the previously described KIRA-ELISA assay with slight modifications. Cortical neurons were seeded on polyornithin-coated flat-bottom 96-well culture plates (12×10^4 cells per well) and cultured eight days at 37°C in 5% CO2. TetOn-rhTrkB cells were seeded on flat-bottom 96-well culture plates (4×10^4 cells per well) and incubated overnight with 1000 ng/ml doxycycline (Figs. S1,S2) except when indicated. Fluorescence levels in TetOn-rhTrkB cells were verified before each assay. […] Solubilized membranes were transferred for 2 h at room temperature onto ELISA microtiter plate (Nunc Maxisorp) pre-coated overnight at 4°C with appropriate antibodies [polyclonal anti-GFP (1∶5000, Clontech) for TetOn-rhTrkB, polyclonal anti-TrkB (1 µg/ml, Upstate) for cultured neurons and brain slices, for phosphorylation assays; monoclonal anti-GFP (1∶3000, Chemicon) for TetOn-rhTrkB, monoclonal anti-TrkB (1∶1000, BD Biosciences) for cultured neurons and brain slices, for total TrkB quantification]. […] Absorbance was read at 450 nm after addition of 3,3′,5′,5-tetramethyl-benzidine substrate (Sigma) and acidification with 1N hydrochloric acid.

brain TrkB receptors = target: T3, brain TrkB receptors (Mus musculus, UniProt P15209); test: In vivo KIRA-ELISA analysis after intravenous injection; conditions: mice, i.v. 2×200 µg, 90-min interval
T3 construct: KIRA-ELISA analysis of brain TrkB receptors from mice; from tissue; host or cells: adult Swiss mouse brain, 300-µm coronal slices
Description: Adult Swiss mice (20–25 g) received a double 90-min-interval i.v. injection of saline buffer, tat-cyclotraxin-B (2×200 µg) or tat-empty (2×200 µg). Three hours after the first injection, mice were decapitated, brains quickly removed on ice, 300-µm coronal sections were prepared with a vibratome at three levels (bregma 0.90 mm: caudate putamen/nucleus accumbens level; bregma −1.60 mm: dorsal hippocampus level; bregma −2.70 mm: ventral hippocampus level, see SI Fig. 8A ) and placed in a holding chamber for one hour. Slices were then incubated in Ringer's solution supplemented with tat-cyclotraxin-B or tat-empty (1 µM) in holding chamber saturated with 95% O2, 5% CO2. […] Experiments were stopped by quick removing of the medium on ice. […] Protein concentrations were determined and equal amounts of proteins were loaded in each well for KIRA-ELISA assays (see above). The following antibodies combination was used for phosphorylation assays: TrkB capture with polyclonal anti-TrkB (1 µg/ml); tyrosine phosphorylation quantification with biotinylated anti-phosphotyrosine (4G10, 0.5 µg/ml) and a streptavidin-peroxydase system (1∶4000). The following combination was used for total TrkB quantification: TrkB capture with monoclonal anti-TrkB (1∶1000); total TrkB quantification with polyclonal anti-TrkB (1 µg/ml). Absorbance at 450 nm was read after addition of TMB and acidification. […]

T2 sequence (P15209 32-821): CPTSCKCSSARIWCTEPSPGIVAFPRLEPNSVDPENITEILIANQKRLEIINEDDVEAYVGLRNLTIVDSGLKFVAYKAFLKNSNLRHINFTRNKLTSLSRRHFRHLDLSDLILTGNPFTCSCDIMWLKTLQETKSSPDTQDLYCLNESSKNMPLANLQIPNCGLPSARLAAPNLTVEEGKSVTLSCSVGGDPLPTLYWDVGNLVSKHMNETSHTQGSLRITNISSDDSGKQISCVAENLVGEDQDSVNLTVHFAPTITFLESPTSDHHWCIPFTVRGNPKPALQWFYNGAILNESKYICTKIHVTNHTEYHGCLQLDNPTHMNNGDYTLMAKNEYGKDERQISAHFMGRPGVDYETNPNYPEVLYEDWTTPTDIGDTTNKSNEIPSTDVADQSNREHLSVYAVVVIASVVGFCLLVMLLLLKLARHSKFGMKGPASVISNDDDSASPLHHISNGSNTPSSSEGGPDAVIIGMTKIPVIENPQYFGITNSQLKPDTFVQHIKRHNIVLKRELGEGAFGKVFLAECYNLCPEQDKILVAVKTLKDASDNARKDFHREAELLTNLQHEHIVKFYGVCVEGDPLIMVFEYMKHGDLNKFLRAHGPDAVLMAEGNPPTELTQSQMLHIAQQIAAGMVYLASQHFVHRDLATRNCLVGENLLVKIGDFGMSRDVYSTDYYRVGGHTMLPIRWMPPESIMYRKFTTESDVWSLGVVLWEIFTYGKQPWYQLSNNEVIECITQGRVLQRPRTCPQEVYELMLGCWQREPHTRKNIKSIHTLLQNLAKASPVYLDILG
T3 sequence (P15209 32-821): as above
T1 sequence (Q16620 32-822): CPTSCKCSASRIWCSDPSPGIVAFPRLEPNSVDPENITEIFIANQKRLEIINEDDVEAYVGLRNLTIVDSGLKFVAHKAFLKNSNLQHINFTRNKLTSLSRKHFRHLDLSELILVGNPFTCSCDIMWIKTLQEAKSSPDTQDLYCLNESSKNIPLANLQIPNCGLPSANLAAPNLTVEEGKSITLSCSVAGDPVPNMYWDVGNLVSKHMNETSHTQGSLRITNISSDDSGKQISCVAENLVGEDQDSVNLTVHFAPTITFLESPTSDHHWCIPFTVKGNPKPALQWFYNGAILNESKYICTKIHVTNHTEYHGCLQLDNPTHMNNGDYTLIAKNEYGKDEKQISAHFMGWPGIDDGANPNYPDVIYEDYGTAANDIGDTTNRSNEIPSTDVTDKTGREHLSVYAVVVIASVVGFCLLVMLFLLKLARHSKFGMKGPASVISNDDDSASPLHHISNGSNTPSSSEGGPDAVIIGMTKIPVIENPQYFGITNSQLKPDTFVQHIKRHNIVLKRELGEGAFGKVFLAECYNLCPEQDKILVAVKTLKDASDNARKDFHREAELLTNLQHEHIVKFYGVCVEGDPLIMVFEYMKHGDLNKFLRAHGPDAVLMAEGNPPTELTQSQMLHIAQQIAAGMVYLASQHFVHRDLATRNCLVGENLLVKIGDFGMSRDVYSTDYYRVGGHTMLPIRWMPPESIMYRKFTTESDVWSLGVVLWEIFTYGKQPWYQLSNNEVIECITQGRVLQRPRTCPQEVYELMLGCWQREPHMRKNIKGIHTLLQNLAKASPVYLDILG

## YGRKKRRQRRRCNPMGYTKEGC [tat-cyclotraxin-B]
Human TrkB receptor
  TrkB inhibition compared with cyclotraxin-B: similarly to cyclotraxin-B
TrkB in brain slices
  decrease in TrkB activity, slice incubation: 52.0±3.9%
Brain TrkB receptors
  decrease in TrkB activity, injection: 50.9±3.1%
